One assay concerns the target human IgG1 (human). As to the kind of experiment: Biacore (SPR), format not described. In general terms: SPR reads the build-up and loss of mass on a sensor chip optically.
Assay [1] deals with CD64+V172-28z CAR (CD64 with insertion of Valine at 172 - TMCD8 - CD28 - truncated CD3z) on primary T lymphocytes (human). As to the kind of experiment: cell-based or functional assay.
Assay [2] concerns the target CD64K130S CAR (4-1BB-CD3z) on primary T lymphocytes (human). Put plainly: cell-based or functional assay.
The target of assay [3] is CD64wt-Bbz CAR (native CD64 - TMCD8 - 4-1BB - CD3z) on primary T lymphocytes (human). As to the kind of experiment: cell-based or functional assay.
For assay [4], the target named is CD64K130Y CAR (CD64 K130Y - TMCD8 - 4-1BB - full CD3z) on primary T lymphocytes (human). Put plainly: cell-based or functional assay.
The target in assay [5] is CD64R175A CAR (CD64 R175A - TMCD8 - CD28 - CD3z) on primary T lymphocytes (human). As to the kind of experiment: cell-based or functional assay.

Usually Kd stands for the constant that tells how readily two partners part at equilibrium. A higher Kd goes with lower affinity. “CD64 with K130H mutation, as measured by Biacore (receptor)”: in the assay with human IgG1 (human), the Kd turned out to be 53 nM and the fold lower affinity for IgG1 than native CD64 is 5 fold.
Turning to “CD64 with K130S, as measured by Biacore (receptor)”, in the assay with human IgG1 (human), the Kd was found to be 74 nM and the fold reduction of the affinity of CD64 for IgG1 was 7 fold.
In assay [1], “anti-CD20 antibody (Rituximab clone), IgG1” gave a % inhibition 20%HS vs 10%FBS (24h) of 20.4%; a % inhibition 20%HS vs 10%FBS (3 days) of 40.2%; a % inhibition 20%HS vs 10%FBS (7 days) of 51.7%; a % inhibition (72h, 20% human serum vs 10% FBS) of 31.5%. Further, in assay [1], the gamma IFN secretion in proliferation assay, 10% FBS, mean (3 days) is 438000; the gamma IFN secretion in proliferation assay, 10% FBS, mean (7 days) is 753000; the gamma IFN secretion in proliferation assay, 20% human serum, mean (3 days) was 262000; the gamma IFN secretion in proliferation assay, 20% human serum, mean (7 days) came out at 364000. In assay [1], the gamma interferon secretion, 24h co-culture with Raji, 10% FBS, mean stood at 11500; the gamma interferon secretion, 24h co-culture with Raji, 20% human serum, mean was found to be 9130; the gamma interferon secretion, 72h co-culture with Raji, 10% FBS, mean was determined as 399000; the gamma interferon secretion, 72h co-culture with Raji, 20% human serum, mean amounted to 273000. For the same substance, the inhibition of proliferation by human serum in assay [1] worked out at 38%. In assay [2], this substance registered a cytokine secretion, 24h co-culture with Raji, antibody 2 ug/mL, 2,5% Human Serum, mean of 5350; a cytokine secretion, 24h co-culture with Raji, antibody 2 ug/mL, 10% FBS, mean of 5410; a cytokine secretion, 24h co-culture with Raji, antibody 2 ug/mL, 20% Human Serum, mean of 2730; a percent inhibition 20%HS vs 10%FBS of 49.5%. In assay [3], this substance yielded a % inhibition 20%HS vs 10%FBS (24h) of 90.3%; a % inhibition 20%HS vs 10%FBS (3 days) of 91.7%; a % inhibition 20%HS vs 10%FBS (7 days) of 69.5%; a % inhibition (72h, 20% human serum vs 10% FBS) of 92.8%. In assay [3], the gamma IFN secretion in proliferation assay, 10% FBS, mean (3 days) was found to be 203000; the gamma IFN secretion in proliferation assay, 10% FBS, mean (7 days) was 107000; the gamma IFN secretion in proliferation assay, 20% human serum, mean (3 days) was determined as 16900; the gamma IFN secretion in proliferation assay, 20% human serum, mean (7 days) came out at 32600. Besides, in assay [3], the gamma interferon secretion, 24h co-culture with Raji, 10% FBS, mean worked out at 12000; the gamma interferon secretion, 24h co-culture with Raji, 20% human serum, mean was found to be 1170; the gamma interferon secretion, 72h co-culture with Raji, 10% FBS, mean stood at 123000; the gamma interferon secretion, 72h co-culture with Raji, 20% human serum, mean came out at 8810. In assay [3], this substance had an inhibition of proliferation by human serum of 6 fold.
With “anti-CD20 antibody IgG1 mutated at Leucine 235 to Alanine”, in assay [4], the cytokine secretion, 24h co-culture with Raji, antibody 2 ug/mL, 2,5% Human Serum, mean was 2720; the cytokine secretion, 24h co-culture with Raji, antibody 2 ug/mL, 10% FBS, mean was determined as 6270; the cytokine secretion, 24h co-culture with Raji, antibody 2 ug/mL, 20% Human Serum, mean worked out at 292; the percent inhibition 20%HS vs 10%FBS turned out to be 95.3%.
In assay [4], anti-CD22 antibody (m971 clone), IgG1 displayed a cytokine secretion, 24h co-culture with Raji, antibody 2 ug/mL, 10% FBS, mean of 20900; a cytokine secretion, 24h co-culture with Raji, antibody 2 ug/mL, 20% Human Serum, mean of 9580; a percent inhibition 20%HS vs 10%FBS of 54.2%. For the same substance, in assay [5], the cytokine secretion, 24h co-culture with Raji, antibody 2 ug/mL, 10% FBS, mean amounted to 55900; the cytokine secretion, 24h co-culture with Raji, antibody 2 ug/mL, 20% Human Serum, mean turned out to be 27000; the percent inhibition 20%HS vs 10%FBS amounted to 51.6%.
The substance “native CD64 (human high affinity Fc gamma receptor alpha chain), as measured by Biacore” showed a dissociation constant (Kd) with human IgG1 (human) of 10 nM.

For the origin of these results see EP3875478A1.
